Assay results taken from patent US20150344570A1 (published 2015).

T1: FcγRIIb extracellular domain with C-terminal His tag (human, UniProt P31994 43-217)
T1 construct: extracellular domain; Soluble receptor expressed in FreeStyle293 cells, used as analyte in Biacore; also called FcgRIIb; 2b
T1 sequence (looked up): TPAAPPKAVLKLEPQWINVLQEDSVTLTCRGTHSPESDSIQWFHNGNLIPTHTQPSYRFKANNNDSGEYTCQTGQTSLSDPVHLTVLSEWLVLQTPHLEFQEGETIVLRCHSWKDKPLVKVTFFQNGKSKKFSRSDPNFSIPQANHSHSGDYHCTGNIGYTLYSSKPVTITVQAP

B1: GpH7-A5/GpH7-B3 variant S337_20W/GpL16-k0 (antibody, human IgG1, kappa)
heavy 1: not shown
heavy 2: not shown
light: DIVMTQSPLSLPVTPGEPASISCQASESLVHSNRNTYLHWYLQKPGQSPQLLIYKVSNRFSGVPDRFSGSGSGTDFTLKISRVEAEDVGVYYCSQNTHVPPTFGQGTKVEIERTVAAPSVFIFPPSDEQLKSGTASVVCLLNNFYPREAKVQWKVDNALQSGNSQESVTEQDSKDSTYSLSSTLTLSKADYEKHKVYACEVTHQGLSSPVTKSFNRGEC
notes: one H chain altered; also called He Ab S337_20W
B2: GpH7-A5/GpH7-B3 variant K334_01G/GpL16-k0 (antibody, human IgG1, kappa)
heavy 1: not shown
heavy 2: not shown
light: B1 light
notes: one H chain altered; also called He Ab K334_01G
B3: GpH7-A5/GpH7-B3 variant I332_01G/GpL16-k0 (antibody, human IgG1, kappa)
heavy 1: not shown
heavy 2: not shown
light: B1 light
notes: one H chain altered; also called He Ab I332_01G
B4: GpH7-A5/GpH7-B3 variant S324_02A/GpL16-k0 (antibody, human IgG1, kappa)
heavy 1: not shown
heavy 2: not shown
light: B1 light
notes: one H chain altered; also called He Ab S324_02A
B5: GpH7-A5/GpH7-B3 variant I336_02A/GpL16-k0 (antibody, human IgG1, kappa)
heavy 1: not shown
heavy 2: not shown
light: B1 light
notes: one H chain altered; also called He Ab I336_02A
B6: GpH7-A5/GpH7-B3 variant S267_02A/GpL16-k0 (antibody, human IgG1, kappa)
heavy 1: not shown
heavy 2: not shown
light: B1 light
notes: one H chain altered; also called He Ab S267_02A
B7: GpH7-A5/GpH7-B3 variant I336_18N/GpL16-k0 (antibody, human IgG1, kappa)
heavy 1: not shown
heavy 2: not shown
light: B1 light
notes: one H chain altered; also called He Ab I336_18N
B8: GpH7-A5/GpH7-B3 variant T335_13S/GpL16-k0 (antibody, human IgG1, kappa)
heavy 1: not shown
heavy 2: not shown
light: B1 light
notes: one H chain altered; also called He Ab T335_13S
B9: GpH7-A5/GpH7-B3 variant S337_10E/GpL16-k0 (antibody, human IgG1, kappa)
heavy 1: not shown
heavy 2: not shown
light: B1 light
notes: one H chain altered; also called He Ab S337_10E
B10: GpH7-A5/GpH7-B3 variant H268_02A/GpL16-k0 (antibody, human IgG1, kappa)
heavy 1: not shown
heavy 2: not shown
light: B1 light
notes: one H chain altered; also called He Ab H268_02A
B11: GpH7-A5/GpH7-B3 variant L234_20W/GpL16-k0 (antibody, human IgG1, kappa)
heavy 1: not shown
heavy 2: not shown
light: B1 light
notes: one H chain altered; also called He Ab L234_20W
B12: GpH7-A5/GpH7-B3 variant T335_20W/GpL16-k0 (antibody, human IgG1, kappa)
heavy 1: not shown
heavy 2: not shown
light: B1 light
notes: one H chain altered; also called He Ab T335_20W
B13: GpH7-A5/GpH7-B3 variant S324_16H/GpL16-k0 (antibody, human IgG1, kappa)
heavy 1: not shown
heavy 2: not shown
light: B1 light
notes: one H chain altered; also called He Ab S324_16H
B14: GpH7-A5/GpH7-B3 variant V266_08L/GpL16-k0 (antibody, human IgG1, kappa)
heavy 1: not shown
heavy 2: not shown
light: B1 light
notes: one H chain altered; also called He Ab V266_08L
B15: GpH7-A5/GpH7-B3 variant T335_16H/GpL16-k0 (antibody, human IgG1, kappa)
heavy 1: not shown
heavy 2: not shown
light: B1 light
notes: one H chain altered; also called He Ab T335_16H
B16: GpH7-A5/GpH7-B3 variant Q295_14T/GpL16-k0 (antibody, human IgG1, kappa)
heavy 1: not shown
heavy 2: not shown
light: B1 light
notes: one H chain altered; also called He Ab Q295_14T
B17: GpH7-A5/GpH7-B3 variant A330_06M/GpL16-k0 (antibody, human IgG1, kappa)
heavy 1: not shown
heavy 2: not shown
light: B1 light
notes: Heterodimerized anti-glypican-3 IgG1; mutation in the GpH7-B3 chain only; also called He Ab
B18: GpH7-A5/GpH7-B3 variant A330_08L/GpL16-k0 (antibody, human IgG1, kappa)
heavy 1: not shown
heavy 2: not shown
light: B1 light
notes: as for B17
B19: GpH7-A5/GpH7-B3 variant A330_03V/GpL16-k0 (antibody, human IgG1, kappa)
heavy 1: not shown
heavy 2: not shown
light: B1 light
notes: as for B17
B20: GpH7-A5/GpH7-B3 variant A330_10E/GpL16-k0 (antibody, human IgG1, kappa)
heavy 1: not shown
heavy 2: not shown
light: B1 light
notes: as for B17
B21: GpH7-A5/GpH7-B3 variant A330_07I/GpL16-k0 (antibody, human IgG1, kappa)
heavy 1: not shown
heavy 2: not shown
light: B1 light
notes: as for B17
B22: GpH7-A5/GpH7-B3 variant A327_11K/GpL16-k0 (antibody, human IgG1, kappa)
heavy 1: not shown
heavy 2: not shown
light: B1 light
notes: as for B17
B23: GpH7-A5/GpH7-B3 variant A330_04F/GpL16-k0 (antibody, human IgG1, kappa)
heavy 1: not shown
heavy 2: not shown
light: B1 light
notes: as for B17

Experiments:
[1] = target: FcγRIIIa extracellular domain with C-terminal His tag (human, UniProt P08637 17-208); test: SPR (Biacore), one H chain altered; HeCon Ab GpH7-A5/GpH7-B3/GpL16-k0 = 100
Target sequence in this assay (P08637 17-208): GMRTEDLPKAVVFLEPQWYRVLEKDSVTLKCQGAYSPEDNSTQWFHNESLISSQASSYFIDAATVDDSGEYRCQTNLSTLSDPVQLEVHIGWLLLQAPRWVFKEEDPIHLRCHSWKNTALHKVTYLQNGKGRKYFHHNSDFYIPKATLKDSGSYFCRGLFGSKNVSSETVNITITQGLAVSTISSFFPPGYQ

[2] = target: T2, FcγRIIIa extracellular domain with C-terminal His tag (human, UniProt P08637 17-208); test: SPR (Biacore); He/Con_3a divided by He/Con_2b (FcγRIIIa against FcγRIIb)
T2 construct: extracellular domain; also called FcgRIIIa; 3a
Description: (§1) The heterodimerized antibodies He Abs in which one of the H chains was introduced with an alteration were assayed for their binding activities to each activating FcγR and inhibitory FcγR according to the method described in Example 4. […] The activating FcγRs in FIGS. 26, 27, 28, and 29 are FcγRIa, FcγRIIa (R), FcγRIIa (H), and FcγRIIIa, respectively.
(§2) Analysis of interaction between objective antibody and the FcγR was carried out using Biacore T100 (GE Healthcare). HBS-EP+ (GE Healthcare) was used as the running buffer, and the measurement temperature was set to 25° C. Chips produced by immobilizing the antigen peptide by the amine coupling method to a Series S Sencor Chip CM5 (GE Healthcare), or alternatively, chips produced by allowing preliminarily biotinylated antigen peptides to interact with and immobilize onto a Series S Sensor Chip SA (certified) (GE Healthcare) were used. Antibodies of interest were captured onto an antigen peptide-immobilized chip, and allowed to interact to each FcγR diluted with running buffer. To regenerate and repeatedly use the chip, the antibodies captured on the chip were washed off by reacting 10 mM glycine-HCl, pH 1.5.
T2 sequence (P08637 17-208): as above

[3] = target: T1, FcγRIIb extracellular domain with …; test: SPR (Biacore), antibody captured on antigen peptide chip, FcγR as analyte; GpH7-A5/GpH7-B3/GpL16-k0 = 100
Description: as §1, §2

[4] = target: T2, FcγRIIIa extracellular domain with …; test: as above
Description: as §1, §2

Binder | He/Con_3a [1] [%] | He_3a/2b (IIIa/IIb) [2] [ratio] | He/Con_2b (relative binding activity) [3] | He/Con_3a (relative binding activity) [4]
B1 | 101 | – | – | –
B2 | 121 | – | – | –
B3 | 111 | – | – | –
B4 | 104 | – | – | –
B5 | 111 | – | – | –
B6 | 150 | – | – | –
B7 | 104 | – | – | –
B8 | 105 | – | – | –
B9 | 105 | – | – | –
B10 | 122 | – | – | –
B11 | 107 | – | – | –
B12 | 102 | – | – | –
B13 | 104 | – | – | –
B14 | 118 | – | – | –
B15 | 104 | – | – | –
B16 | 115 | – | – | –
B17 | – | 1.76 | 80.5 % of control | 142 % of control
B18 | – | 1.77 | 70.5 % of control | 124 % of control
B19 | – | 1.93 | 52.4 % of control | 101 % of control
B20 | – | 1.21 | 70.1 % of control | 84.6 % of control
B21 | – | 1.53 | 67.1 % of control | 103 % of control
B22 | – | 2.53 | 12.5 % of control | 31.7 % of control
B23 | – | 1.59 | 92.8 % of control | 147 % of control
